Measurements from US20260216242A1, “ALPP-SPECIFIC VARIANT ANTIGEN BINDING MOLECULES” (ALMAC DISCOVERY LIMITED, priority 2022, published 2026).

B1: A06 F05-hFc (S239/442C T366Y/Y407T) [G4S]3 conjugated to MC-vc-PAB-MMAE (Fc fusion, DAR 4.0)
chain 1: QVHLVESGGGLVQAGGSLRLSCAASGRTFLSMGWFRQAPGKEREFVAAISWTGGSTGYADSVKGRFTISRESDKETMYLQMNSLKPEDTAVYYCAARGDVYYGGDDATRYKYWGQGTQVTVSSGGGGSGGGGSGGGGSEPKSSDKTHTCPPCPAPELLGGPCVFLFPPKPKDTLMISRTPEVTCVVVDVSHEDPEVKFNWYVDGVEVHNAKTKPREEQYNSTYRVVSVLTVLHQDWLNGKEYKCKVSNKALPAPIEKTISKAKGQPREPQVYTLPPSRDELTKNQVSLYCLVKGFYPSDIAVEWESNGQPENNYKTTPPVLDSDGSFFLYSKLTVDKSRWQQGNVFSCSVMHEALHNHYTQKSLCLSPGK
chain 2: QVQLVESGGGLVQAGGSLRLSCAASGRAFGDYNIGWFRQAPGKEREFVARRTWDGSSTRYDDSVKGRFTVSIDNAKNTAYLQMNSLKTEDTAVYYCAAGRYSRVRGWEYDYWGQGTQVTVSSGGGGSGGGGSGGGGSEPKSSDKTHTCPPCPAPELLGGPCVFLFPPKPKDTLMISRTPEVTCVVVDVSHEDPEVKFNWYVDGVEVHNAKTKPREEQYNSTYRVVSVLTVLHQDWLNGKEYKCKVSNKALPAPIEKTISKAKGQPREPQVYTLPPSRDELTKNQVSLTCLVKGFYPSDIAVEWESNGQPENNYKTTPPVLDSDGSFFLTSKLTVDKSRWQQGNVFSCSVMHEALHNHYTQKSLCLSPGK
modifications: here or on the partner: MC-vc-PAB-MMAE on Cys 239 and Cys 442 (S239C, S442C, EU numbering)
B2: D10 E06-hFc (S239/442C T366Y/Y407T) [G4S]3 conjugated to MC-vc-PAB-MMAE (Fc fusion, DAR 4.0)
chain 1: QVQLVESGGGLVQPGGSLRLSCAASGSIFSVNTMGWYRQAPGKQRDLVAVATSGGTIHYADSVKGRFTISRDNAKNTVYLQMNSLKPEDTAVYYCNLVVPYGMIAGDHDYWGQGTKVTVSSGGGGSGGGGSGGGGSEPKSSDKTHTCPPCPAPELLGGPCVFLFPPKPKDTLMISRTPEVTCVVVDVSHEDPEVKFNWYVDGVEVHNAKTKPREEQYNSTYRVVSVLTVLHQDWLNGKEYKCKVSNKALPAPIEKTISKAKGQPREPQVYTLPPSRDELTKNQVSLYCLVKGFYPSDIAVEWESNGQPENNYKTTPPVLDSDGSFFLYSKLTVDKSRWQQGNVFSCSVMHEALHNHYTQKSLCLSPGK
chain 2: QVHLVESGGGLVQAGGSLRLSCAASRRSFSEYAMGWFRQAPGKEREFVAAIGWSGVIEYADSVKGRFTISRDNAKDTVYLQMNSLKPEDTAVYYCAAGLGIRVVSQTPAYWGQGTQVTVSSGGGGSGGGGSGGGGSEPKSSDKTHTCPPCPAPELLGGPCVFLFPPKPKDTLMISRTPEVTCVVVDVSHEDPEVKFNWYVDGVEVHNAKTKPREEQYNSTYRVVSVLTVLHQDWLNGKEYKCKVSNKALPAPIEKTISKAKGQPREPQVYTLPPSRDELTKNQVSLTCLVKGFYPSDIAVEWESNGQPENNYKTTPPVLDSDGSFFLTSKLTVDKSRWQQGNVFSCSVMHEALHNHYTQKSLCLSPGK
modifications: here or on the partner: MC-vc-PAB-MMAE on Cys 239 and Cys 442 (S239C, S442C, EU numbering)
B3: D10 F05-hFc (S239/442C T366Y/Y407T) [G4S]3 conjugated to MC-vc-PAB-MMAE (Fc fusion, DAR 3.9)
chain 1: QVQLVESGGGLVQPGGSLRLSCAASGSIFSVNTMGWYRQAPGKQRDLVAVATSGGTIHYADSVKGRFTISRDNAKNTVYLQMNSLKPEDTAVYYCNLVVPYGMIAGDHDYWGQGTKVTVSSGGGGSGGGGSGGGGSEPKSSDKTHTCPPCPAPELLGGPCVFLFPPKPKDTLMISRTPEVTCVVVDVSHEDPEVKFNWYVDGVEVHNAKTKPREEQYNSTYRVVSVLTVLHQDWLNGKEYKCKVSNKALPAPIEKTISKAKGQPREPQVYTLPPSRDELTKNQVSLYCLVKGFYPSDIAVEWESNGQPENNYKTTPPVLDSDGSFFLYSKLTVDKSRWQQGNVFSCSVMHEALHNHYTQKSLCLSPGK
chain 2: QVQLVESGGGLVQAGGSLRLSCAASGRAFGDYNIGWFRQAPGKEREFVARRTWDGSSTRYDDSVKGRFTVSIDNAKNTAYLQMNSLKTEDTAVYYCAAGRYSRVRGWEYDYWGQGTQVTVSSGGGGSGGGGSGGGGSEPKSSDKTHTCPPCPAPELLGGPCVFLFPPKPKDTLMISRTPEVTCVVVDVSHEDPEVKFNWYVDGVEVHNAKTKPREEQYNSTYRVVSVLTVLHQDWLNGKEYKCKVSNKALPAPIEKTISKAKGQPREPQVYTLPPSRDELTKNQVSLTCLVKGFYPSDIAVEWESNGQPENNYKTTPPVLDSDGSFFLTSKLTVDKSRWQQGNVFSCSVMHEALHNHYTQKSLCLSPGK
modifications: here or on the partner: MC-vc-PAB-MMAE on Cys 239 and Cys 442 (S239C, S442C, EU numbering)
B4: D10 F05-hFc (S239/442C T366Y/Y407T) [G4S]1 conjugated to MC-vc-PAB-MMAE (Fc fusion, DAR 4.0)
chain 1: QVQLVESGGGLVQPGGSLRLSCAASGSIFSVNTMGWYRQAPGKQRDLVAVATSGGTIHYADSVKGRFTISRDNAKNTVYLQMNSLKPEDTAVYYCNLVVPYGMIAGDHDYWGQGTKVTVSSGGGGSEPKSSDKTHTCPPCPAPELLGGPCVFLFPPKPKDTLMISRTPEVTCVVVDVSHEDPEVKFNWYVDGVEVHNAKTKPREEQYNSTYRVVSVLTVLHQDWLNGKEYKCKVSNKALPAPIEKTISKAKGQPREPQVYTLPPSRDELTKNQVSLYCLVKGFYPSDIAVEWESNGQPENNYKTTPPVLDSDGSFFLYSKLTVDKSRWQQGNVFSCSVMHEALHNHYTQKSLCLSPGK
chain 2: QVQLVESGGGLVQAGGSLRLSCAASGRAFGDYNIGWFRQAPGKEREFVARRTWDGSSTRYDDSVKGRFTVSIDNAKNTAYLQMNSLKTEDTAVYYCAAGRYSRVRGWEYDYWGQGTQVTVSSGGGGSEPKSSDKTHTCPPCPAPELLGGPCVFLFPPKPKDTLMISRTPEVTCVVVDVSHEDPEVKFNWYVDGVEVHNAKTKPREEQYNSTYRVVSVLTVLHQDWLNGKEYKCKVSNKALPAPIEKTISKAKGQPREPQVYTLPPSRDELTKNQVSLTCLVKGFYPSDIAVEWESNGQPENNYKTTPPVLDSDGSFFLTSKLTVDKSRWQQGNVFSCSVMHEALHNHYTQKSLCLSPGK
modifications: here or on the partner: MC-vc-PAB-MMAE on Cys 239 and Cys 442 (S239C, S442C, EU numbering)

Target: ALPP/ALPPL2 on ALPP/ALPPL2 positive cancer cells
Assay: cell-based or functional assay

For B1, which % viability remaining, MDA-MB-468 cells is on record?
The % viability remaining, MDA-MB-468 cells was 17%.

And the % viability remaining, MKN-1 cells?
Its % viability remaining, MKN-1 cells is 16%.

What about the % viability remaining, NCI-H1651 cells of the same binder?
The % viability remaining, NCI-H1651 cells was 22%.

What about the % viability remaining, NCI-N87 cells of the same binder?
Its % viability remaining, NCI-N87 cells is 36%.

And the IC50 at 96 h (nM), cell-killing of MDA-MB-468 cells (Cell Titre Glo)?
Its IC50 at 96 h (nM), cell-killing of MDA-MB-468 cells (Cell Titre Glo) is 12 nM.

And the IC50 at 96 h (nM), cell-killing of MKN-1 cells (Cell Titre Glo)?
The IC50 at 96 h (nM), cell-killing of MKN-1 cells (Cell Titre Glo) was 0.26 nM.

What about the IC50 at 96 h (nM), cell-killing of NCI-H1651 cells (Cell Titre Glo) of the same binder?
The IC50 at 96 h (nM), cell-killing of NCI-H1651 cells (Cell Titre Glo) was 0.47 nM.

What about the IC50 at 96 h (nM), cell-killing of NCI-N87 cells (Cell Titre Glo) of the same binder?
The IC50 at 96 h (nM), cell-killing of NCI-N87 cells (Cell Titre Glo) was 7.9 nM.

What does the source list for B2?
% viability remaining, MDA-MB-468 cells: 16%; % viability remaining, MKN-1 cells: 12%; % viability remaining, NCI-H1651 cells: 21%; % viability remaining, NCI-N87 cells: 34%; IC50 at 96 h (nM), cell-killing of MDA-MB-468 cells (Cell Titre Glo): 1.55 nM; IC50 at 96 h (nM), cell-killing of MKN-1 cells (Cell Titre Glo): 0.1 nM; IC50 at 96 h (nM), cell-killing of NCI-H1651 cells (Cell Titre Glo): 0.53 nM; IC50 at 96 h (nM), cell-killing of NCI-N87 cells (Cell Titre Glo): 3.6 nM

Which results are given for B3?
% viability remaining, MDA-MB-468 cells: 17%; % viability remaining, MKN-1 cells: 13%; % viability remaining, NCI-H1651 cells: 22%; % viability remaining, NCI-N87 cells: 37%; IC50 at 96 h (nM), cell-killing of MDA-MB-468 cells (Cell Titre Glo): 0.96 nM; IC50 at 96 h (nM), cell-killing of MKN-1 cells (Cell Titre Glo): 0.12 nM; IC50 at 96 h (nM), cell-killing of NCI-H1651 cells (Cell Titre Glo): 0.74 nM; IC50 at 96 h (nM), cell-killing of NCI-N87 cells (Cell Titre Glo): 1.8 nM

What does the source list for B4?
% viability remaining, MDA-MB-468 cells: 17%; % viability remaining, MKN-1 cells: 16%; % viability remaining, NCI-H1651 cells: 22%; % viability remaining, NCI-N87 cells: 35%; IC50 at 96 h (nM), cell-killing of MDA-MB-468 cells (Cell Titre Glo): 2.36 nM; IC50 at 96 h (nM), cell-killing of MKN-1 cells (Cell Titre Glo): 0.14 nM; IC50 at 96 h (nM), cell-killing of NCI-H1651 cells (Cell Titre Glo): 0.85 nM; IC50 at 96 h (nM), cell-killing of NCI-N87 cells (Cell Titre Glo): 2 nM
